By EC50 is commonly meant the concentration needed to bring the measured effect to its halfway point. Higher therefore signals a need for much substance.

EC50 data for seven molecules are collected here from patent US20190343963A1 (published 2019).

Residue numbers refer to the chain shown, from its start. Numbers in names are those of the source.

The target in test [1] is T1, FLAG-tagged human IL-13 (human, UniProt P35225 35-146). As to the kind of experiment: competition ELISA; 1 h incubation. For orientation: In an ELISA, binding on a coated surface is turned into a signal by an enzyme label.
T1 sequence (P35225 35-146): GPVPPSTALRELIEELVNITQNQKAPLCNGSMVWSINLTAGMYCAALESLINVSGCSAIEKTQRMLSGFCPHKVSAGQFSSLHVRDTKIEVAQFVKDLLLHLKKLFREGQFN
Test [2] has as its target T1, FLAG-tagged human IL-13. The test can be described thus: competition ELISA; 24 h incubation.
The target in test [3] is T1, FLAG-tagged human IL-13. As to the kind of experiment: competition ELISA; 1 h incubation. The source holds these as a separate data set.
Test [4] deals with T1, FLAG-tagged human IL-13. The test can be described thus: competition ELISA; 24 h incubation. This is another data set of the same source.

B1: 111 7g11 Alb22 (protein)
chain: TYNGCSSSEQSALAAAASAAQSYVAESLSYLQTHTAATPRYTTWFGSYISSRHSTVLQHYTDMNSNDFSSYSFDCTCTAAGTFAYVYPNRFGTVYLCGAFWQAPTTGTDSQAGTLVHESSHFTRNGGTDDYAYGQAAAQSLATMNPDQAVMNADNHEYFSENNPAQSAAAGGGGSGDLGRRLLEAARAGQDDEVRILMANGADVNAADYFSHTPLHLAARNGHLEIVEVLLQAGADVNASDFAGKTPLHLAANDGHLEIVEVLLQHGADVNAQDIFGRTPADIAADAGHEDIAEVLQRLNGGGGSGGGGSGGGGSGGGGSGGGGSGGGGSGGGSSGLDRRLLEAARAGQDDEVRILMANGADVNATDEFDSTPLHLAARHGHLEIVEVLLQYGADVNAADFIGDTPLHLAAYRGHLEIVEVLLQYGVDVNADDHGDTPLHLAASTGHLEIVEVLLQHGADVNAQDIFGRTAFDISIDNGNEDLAEILQRAA
Take B1: the values for the EC50 with FLAG-tagged human IL-13 [1] and with FLAG-tagged human IL-13 [2] were 19 pM and 3.6 pM, respectively.

B2: SH111 D154N ΔK (protein)
chain: SSYSFDCTCTAAGTFAYVYPNRFGTVYLCGAFWQAPTTGTDSQAGTLVHESSHFTRNGGTDDYAYGQAAAQSLATMNPDQAVMNANNHEYFSENNPAQSAAAGGGGSGDLGRRLLEAARAGQDDEVRILMANGADVNAADYFSHTPLHLAARNGHLEIVEVLLQYGADVNASDFAGRTPLHLAANDGHLEIVEVLLQHGADVNAQDIFGRTPADIAADNGHEDIAEVLQRAAGGGGSGGGGSGGGGSGGGGSGGGGSGGGGSGGGSSALDRRLLEAARAGQDDEVRILMANGADVNARDSYGSTPLHLAAREGHLEIVEVLLQYGADVNAADFIGDTPLHLAAYRGHLEIVEVLLQYGADVNASDITGETPLHLAAQIGHLEIVEVLLQHGADVNAQDIFGRTAFDISIDNGNEDLAEILQRAA
Turning to B2, the EC50 in the test with FLAG-tagged human IL-13 [3] is 802 pM; in the test with FLAG-tagged human IL-13 [4], 15 pM.

B3: IL-13 DARPin ΔK (protein)
chain: ALDRRLLEAARAGQDDEVRILMANGADVNARDSYGSTPLHLAAREGHLEIVEVLLQYGADVNAADFIGDTPLHLAAYRGHLEIVEVLLQYGADVNASDITGETPLHLAAQIGHLEIVEVLLQHGADVNAQDIFGRTAFDISIDNGNEDLAEILQRAA
With B3, the EC50 with FLAG-tagged human IL-13 [3] is 13700 pM; with FLAG-tagged human IL-13 [4], 21200 pM.

B4: SH111 wt ΔK (protein)
chain: TYNGCSSSEQSALAAAASAAQSYVAESLSYLQTHTAATPRYTTWFGSYISSRHSTVLQHYTDMNSNDFSSYSFDCTCTAAGTFAYVYPNRFGTVYLCGAFWQAPTTGTDSQAGTLVHESSHFTRNGGTDDYAYGQAAAQSLATMNPDQAVMNADNHEYFSENNPAQSAAAGGGGSGDLGRRLLEAARAGQDDEVRILMANGADVNAADYFSHTPLHLAARNGHLEIVEVLLQYGADVNASDFAGRTPLHLAANDGHLEIVEVLLQHGADVNAQDIFGRTPADIAADNGHEDIAEVLQRAAGGGGSGGGGSGGGGSGGGGSGGGGSGGGGSGGGSSALDRRLLEAARAGQDDEVRILMANGADVNARDSYGSTPLHLAAREGHLEIVEVLLQYGADVNAADFIGDTPLHLAAYRGHLEIVEVLLQYGADVNASDITGETPLHLAAQIGHLEIVEVLLQHGADVNAQDIFGRTAFDISIDNGNEDLAEILQRAA
B4: the EC50 in the test with FLAG-tagged human IL-13 [3] is 65 pM; in the test with FLAG-tagged human IL-13 [4], 2 pM.

B5: SH111 E157Q ΔK (protein)
chain: B4 chain with E157Q
For the molecule B5, the EC50 was 80 pM with FLAG-tagged human IL-13 [3] and 3 pM in the test with FLAG-tagged human IL-13 [4].

B6: SH111 NQ ΔK (protein)
chain: B4 chain with D154N, E157Q
Take B6: the EC50 with FLAG-tagged human IL-13 [3] amounted to 705 pM; with FLAG-tagged human IL-13 [4], 27 pM.

B7: 111 7g11 Alb22 NQ (protein)
chain: ATYNGCSSSEQSALAAAASAAQSYVAESLSYLQTHTAATPRYTTWFGSYISSRHSTVLQHYTDMNSNDFSSYSFDCTCTAAGTFAYVYPNRFGTVYLCGAFWQAPTTGTDSQAGTLVHESSHFTRNGGTDDYAYGQAAAQSLATMNPDQAVMNANNHQYFSENNPAQSAAAGGGGSGDLGRRLLEAARAGQDDEVRILMANGADVNAADYFSHTPLHLAARNGHLEIVEVLLQAGADVNASDFAGKTPLHLAANDGHLEIVEVLLQHGADVNAQDIFGRTPADIAADAGHEDIAEVLQRLNGGGGSGGGGSGGGGSGGGGSGGGGSGGGGSGGGSSGLDRRLLEAARAGQDDEVRILMANGADVNATDEFDSTPLHLAARHGHLEIVEVLLQYGADVNAADFIGDTPLHLAAYRGHLEIVEVLLQYGVDVNADDHGDTPLHLAASTGHLEIVEVLLQHGADVNAQDIFGRTAFDISIDNGNEDLAEILQRAA
For the molecule B7, the results for the concentration for a half-maximal effect (EC50) in the test with FLAG-tagged human IL-13 [1] and in the test with FLAG-tagged human IL-13 [2] were 75 pM and 6.9 pM, respectively.
